T1: MukB (E. coli SMC protein of MukBEF) (E. coli, UniProt P22523 1-1486)
T1 sequence: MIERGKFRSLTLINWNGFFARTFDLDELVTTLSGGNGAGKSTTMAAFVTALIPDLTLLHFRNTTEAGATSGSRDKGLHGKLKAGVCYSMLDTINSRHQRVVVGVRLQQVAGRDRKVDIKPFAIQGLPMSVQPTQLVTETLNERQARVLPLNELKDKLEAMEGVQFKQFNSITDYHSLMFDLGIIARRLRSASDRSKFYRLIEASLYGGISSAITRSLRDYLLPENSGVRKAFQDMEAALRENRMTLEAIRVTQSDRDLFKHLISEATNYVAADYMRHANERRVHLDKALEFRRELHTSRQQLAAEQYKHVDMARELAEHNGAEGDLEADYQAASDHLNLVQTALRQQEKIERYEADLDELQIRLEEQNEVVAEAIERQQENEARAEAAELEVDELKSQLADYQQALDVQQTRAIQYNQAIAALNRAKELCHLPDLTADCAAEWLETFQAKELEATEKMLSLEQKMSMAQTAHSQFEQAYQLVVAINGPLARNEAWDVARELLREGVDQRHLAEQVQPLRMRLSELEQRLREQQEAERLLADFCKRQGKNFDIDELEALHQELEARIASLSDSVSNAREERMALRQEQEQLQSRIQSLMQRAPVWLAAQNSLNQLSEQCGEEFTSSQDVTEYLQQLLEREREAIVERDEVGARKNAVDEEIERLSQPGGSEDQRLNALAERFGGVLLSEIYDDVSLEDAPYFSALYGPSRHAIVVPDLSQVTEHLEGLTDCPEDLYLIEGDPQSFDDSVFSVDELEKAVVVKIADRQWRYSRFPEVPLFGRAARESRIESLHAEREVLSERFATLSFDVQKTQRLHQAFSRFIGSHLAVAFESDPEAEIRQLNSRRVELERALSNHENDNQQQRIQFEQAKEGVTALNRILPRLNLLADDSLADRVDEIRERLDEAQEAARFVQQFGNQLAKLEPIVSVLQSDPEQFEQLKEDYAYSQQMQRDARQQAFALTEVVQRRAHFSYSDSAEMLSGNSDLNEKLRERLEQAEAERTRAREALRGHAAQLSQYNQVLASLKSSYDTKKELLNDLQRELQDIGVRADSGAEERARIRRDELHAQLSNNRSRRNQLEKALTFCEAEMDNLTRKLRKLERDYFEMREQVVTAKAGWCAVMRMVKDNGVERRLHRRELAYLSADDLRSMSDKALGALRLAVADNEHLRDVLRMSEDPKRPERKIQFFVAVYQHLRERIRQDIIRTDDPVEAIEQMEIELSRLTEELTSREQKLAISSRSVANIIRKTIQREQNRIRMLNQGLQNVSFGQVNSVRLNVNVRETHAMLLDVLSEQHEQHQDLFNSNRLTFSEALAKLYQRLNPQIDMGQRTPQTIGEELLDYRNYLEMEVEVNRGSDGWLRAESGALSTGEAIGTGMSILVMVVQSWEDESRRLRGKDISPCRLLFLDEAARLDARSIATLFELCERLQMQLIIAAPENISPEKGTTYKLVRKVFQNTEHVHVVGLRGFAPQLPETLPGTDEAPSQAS

B1: MukF (E. coli kleisin of MukBEF) (natural protein)
chain: MSEFSQTVPELVAWARKNDFSISLPVDRLSFLLAVATLNGERLDGEMSEGELVDAFRHVSDAFEQTSETIGVRANNAINDMVRQRLLNRFTSEQAEGNAIYRLTPLGIGITDYYIRQREFSTLRLSMQLSIVAGELKRAADAAEEGGDEFHWHRNVYAPLKYSVAEIFDSIDLTQRLMDEQQQQVKDDIAQLLNKDWRAAISSCELLLSETSGTLRELQDTLEAAGDKLQANLLRIQDATMTHDDLHFVDRLVFDLQSKLDRIISWGQQSIDLWIGYDRHVHKFIRTAIDMDKNRVFAQRLRQSVQTYFDEPWALTYANADRLLDMRDEEMALRDEEVTGELPEDLEYEEFNEIREQLAAIIEEQLAVYKTRQVPLDLGLVVREYLSQYPRARHFDVARIVIDQAVRLGVAQADFTGLPAKWQPINDYGAKVQAHVIDKY

How the values were obtained:
[1] = target: Smc1-Smc3-Scc1 trimer (S. cerevisiae cohesin) (S. cerevisiae, UniProt P32908;P47037;Q12158); experiment: SEC
Chain of Smc1-Smc3-Scc1 trimer (S. cerevisiae cohesin) (P32908 whole entry, chain 1 of 3): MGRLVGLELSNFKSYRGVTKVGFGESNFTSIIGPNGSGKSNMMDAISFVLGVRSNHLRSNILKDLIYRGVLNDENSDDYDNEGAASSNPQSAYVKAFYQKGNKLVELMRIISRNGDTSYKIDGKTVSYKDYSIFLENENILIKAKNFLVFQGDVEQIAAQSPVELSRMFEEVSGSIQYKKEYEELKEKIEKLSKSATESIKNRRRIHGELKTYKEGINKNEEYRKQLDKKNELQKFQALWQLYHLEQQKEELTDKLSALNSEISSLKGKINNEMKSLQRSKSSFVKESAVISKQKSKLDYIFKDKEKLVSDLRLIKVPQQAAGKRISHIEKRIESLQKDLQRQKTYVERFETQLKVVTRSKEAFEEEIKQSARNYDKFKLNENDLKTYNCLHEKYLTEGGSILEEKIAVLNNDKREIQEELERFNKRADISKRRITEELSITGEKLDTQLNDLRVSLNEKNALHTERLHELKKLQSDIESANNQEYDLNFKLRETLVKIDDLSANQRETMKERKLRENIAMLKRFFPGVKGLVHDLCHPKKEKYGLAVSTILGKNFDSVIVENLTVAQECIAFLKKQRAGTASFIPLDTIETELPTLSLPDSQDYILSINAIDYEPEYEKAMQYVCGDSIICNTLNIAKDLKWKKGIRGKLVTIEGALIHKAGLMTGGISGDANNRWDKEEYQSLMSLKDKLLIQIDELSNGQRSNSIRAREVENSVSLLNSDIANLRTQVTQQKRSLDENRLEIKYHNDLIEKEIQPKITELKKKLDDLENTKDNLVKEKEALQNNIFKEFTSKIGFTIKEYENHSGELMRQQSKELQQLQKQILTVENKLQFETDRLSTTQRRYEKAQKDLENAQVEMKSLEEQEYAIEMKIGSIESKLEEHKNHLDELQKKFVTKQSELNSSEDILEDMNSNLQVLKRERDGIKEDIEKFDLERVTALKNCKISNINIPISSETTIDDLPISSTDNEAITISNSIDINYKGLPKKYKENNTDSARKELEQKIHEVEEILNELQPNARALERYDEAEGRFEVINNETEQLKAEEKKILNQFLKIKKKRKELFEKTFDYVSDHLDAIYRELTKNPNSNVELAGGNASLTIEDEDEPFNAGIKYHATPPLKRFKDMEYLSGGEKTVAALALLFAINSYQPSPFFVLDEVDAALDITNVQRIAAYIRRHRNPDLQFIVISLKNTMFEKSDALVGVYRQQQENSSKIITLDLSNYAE
Chain of Smc1-Smc3-Scc1 trimer (S. cerevisiae cohesin) (P47037 whole entry, chain 2 of 3): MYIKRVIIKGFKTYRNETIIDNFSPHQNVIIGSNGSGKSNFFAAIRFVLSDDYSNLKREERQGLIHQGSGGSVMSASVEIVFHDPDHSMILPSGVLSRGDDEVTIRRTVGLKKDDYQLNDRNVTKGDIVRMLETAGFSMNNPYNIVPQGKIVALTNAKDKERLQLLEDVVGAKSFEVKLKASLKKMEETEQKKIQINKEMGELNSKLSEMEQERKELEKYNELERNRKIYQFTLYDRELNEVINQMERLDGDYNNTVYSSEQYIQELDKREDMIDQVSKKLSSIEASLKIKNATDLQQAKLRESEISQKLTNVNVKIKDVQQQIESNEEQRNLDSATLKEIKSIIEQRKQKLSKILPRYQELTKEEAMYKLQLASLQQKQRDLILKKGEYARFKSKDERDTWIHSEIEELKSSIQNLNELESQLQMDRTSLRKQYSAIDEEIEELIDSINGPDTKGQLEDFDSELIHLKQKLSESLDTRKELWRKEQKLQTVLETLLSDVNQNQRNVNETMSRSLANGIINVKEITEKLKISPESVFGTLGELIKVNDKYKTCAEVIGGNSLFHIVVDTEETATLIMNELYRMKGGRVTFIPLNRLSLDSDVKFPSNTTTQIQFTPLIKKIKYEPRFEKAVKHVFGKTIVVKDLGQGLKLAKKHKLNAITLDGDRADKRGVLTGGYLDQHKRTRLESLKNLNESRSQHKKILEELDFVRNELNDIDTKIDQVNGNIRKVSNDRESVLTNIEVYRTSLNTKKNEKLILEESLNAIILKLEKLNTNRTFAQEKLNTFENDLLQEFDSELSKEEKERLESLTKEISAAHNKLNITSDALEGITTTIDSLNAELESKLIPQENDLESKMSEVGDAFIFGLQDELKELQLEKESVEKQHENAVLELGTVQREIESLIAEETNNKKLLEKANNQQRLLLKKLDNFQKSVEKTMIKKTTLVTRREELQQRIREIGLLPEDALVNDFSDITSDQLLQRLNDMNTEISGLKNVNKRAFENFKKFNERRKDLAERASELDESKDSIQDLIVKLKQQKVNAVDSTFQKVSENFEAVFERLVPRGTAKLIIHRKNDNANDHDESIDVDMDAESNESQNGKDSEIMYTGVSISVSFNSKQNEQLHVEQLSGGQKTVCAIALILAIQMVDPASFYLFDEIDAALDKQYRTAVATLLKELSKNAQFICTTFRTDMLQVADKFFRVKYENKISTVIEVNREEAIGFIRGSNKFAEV
Chain of Smc1-Smc3-Scc1 trimer (S. cerevisiae cohesin) (Q12158 whole entry, chain 3 of 3): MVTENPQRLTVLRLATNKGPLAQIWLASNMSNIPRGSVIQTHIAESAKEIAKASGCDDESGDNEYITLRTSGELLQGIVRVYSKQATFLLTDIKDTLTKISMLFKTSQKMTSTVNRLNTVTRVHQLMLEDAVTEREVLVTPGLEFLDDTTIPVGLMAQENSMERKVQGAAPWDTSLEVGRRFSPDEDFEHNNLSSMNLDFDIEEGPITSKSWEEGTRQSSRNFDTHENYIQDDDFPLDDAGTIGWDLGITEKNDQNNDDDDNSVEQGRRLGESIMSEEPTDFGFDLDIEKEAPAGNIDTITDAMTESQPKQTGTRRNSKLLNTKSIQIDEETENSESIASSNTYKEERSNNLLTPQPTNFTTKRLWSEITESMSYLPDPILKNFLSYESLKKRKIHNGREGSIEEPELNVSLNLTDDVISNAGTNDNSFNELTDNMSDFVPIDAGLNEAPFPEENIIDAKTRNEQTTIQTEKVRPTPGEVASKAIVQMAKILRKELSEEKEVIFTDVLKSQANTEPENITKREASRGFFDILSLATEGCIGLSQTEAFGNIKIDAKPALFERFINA

[2] = target: T1, MukB (E. coli SMC protein of MukBEF); experiment: SEC
[3] = target: B1; experiment: cross-linking
[4] = target: B1; experiment: SEC

Row | binding result [1] | binding result [2] | Binder | other results
1 | binds |  | Scc3 (S. cerevisiae cohesin HAWK protein), recombinant (natural protein) MTAVRRSTRIRTKSQVIEEDYDDEQNTSAQHVESDKITAKTQHEEEEEQDTGESEESSSEDDYEDQDDDDYVDTATAKRKSRKRKPKSASNTSSKRQKKKPTSAQKSAVSHAPAYHRSKKDQDQYLEIAKDFQPTELFDILSTSEDVSIEELLREWLETYSENRDKFLQEFINLLLNCCGSVARVEDHDVHSNESSNETIGEIQLLFQRQKLHEFYLLISKENKKRKNFKMGPLYQNFAEFMTKLLEVANDLQLLYVESDEDDTQIVTGNLVLDLLTWLSSFSVCKIRCFRYISTLTLYLFQDYLTQQAVNLEKNYLAKLSKQLSLEEKKKRPNNKTLEKLESTIAETQGSKVVIDSIIDNIVKLCFVHRYKDVSDLIRSESMLHLSIWIKNYPEYFLKVTFLKYFGWLLSDNSVSVRLQVTKILPHLIIQNHNSKSTDNSAIRQVFERFKTKILEVAIRDVNLDVRIHSIQVLTEASSLGYLDDSEILIISSLMFDEEFDPFKTSSFNKRSKFLSTVAKFLARVIKEKFDEFIKTHEDLPKEVDGLEVGPVVQVGIFIKILNDSLIYHLKDCAEVDSRTKIRMLTQAAEFLSPYISTHLKTICNLLISDTESNELIQKLQNSANNNSDDEDVDDEELDITPLFPIDRNSTILYLNVFHGLCAGANNPKIQTKDSVKEIVLPLFYDLLNAASIESADILCPLLESFITFSLDDWISIGYETELKKITDKTIKAFMDSTIGNSKVDMKYDIFAKFIHHIHHFEKKELQEKFLNQIATLKIHLKKFLQEKMDPNNSRDDYKDLTCSLYELYINKLTILGRDYPIEVDEELLQLFLNNFVSRIPIMFQDFDDSTAQEINFKMLVLLATWNLEKWREIIEKVRDYENSISKDLRSVWKPIAAIIGRLNTLVISLAATNETFENINSLFYLKWSACTSLMDIIVAIKIFELKLPADATTWRYSMSEQFPFYLHDNASKVLLKIFLYLESLFAKQVDVQLERVADEDANLNDLPETGFFENIETEFLLFTVKLKGLMKLNILDERFASRVALNKEKLGPLFKKIVDDTIMENPEPNKKNIQKAKSNQTQREKAPLQPNSERETDHANTENNDPDIPMTIDLEPIEESSQNNSELAPIEEHPTVVDAIDNSDEITQD | 
2 |  | binds | B1 | 
3 |  | binds | MukEF complex (E. coli) (complex) chain 1: MSSTNIEQVMPVKLAQALANPLFPALDSALRSGRHIGLDELDNHAFLMDFQEYLEEFYARYNVELIRAPEGFFYLRPRSTTLIPRSVLSELDMMVGKILCYLYLSPERLANEGIFTQQELYDELLTLADEAKLLKLVNNRSTGSDVDRQKLQEKVRSSLNRLRRLGMVWFMGHDSSKFRITESVFRFGADVRAGDDPREAQRRLIRDGEAMPIENHLQLNDETEENQPDSGEEE chain 2: MSEFSQTVPELVAWARKNDFSISLPVDRLSFLLAVATLNGERLDGEMSEGELVDAFRHVSDAFEQTSETIGVRANNAINDMVRQRLLNRFTSEQAEGNAIYRLTPLGIGITDYYIRQREFSTLRLSMQLSIVAGELKRAADAAEEGGDEFHWHRNVYAPLKYSVAEIFDSIDLTQRLMDEQQQQVKDDIAQLLNKDWRAAISSCELLLSETSGTLRELQDTLEAAGDKLQANLLRIQDATMTHDDLHFVDRLVFDLQSKLDRIISWGQQSIDLWIGYDRHVHKFIRTAIDMDKNRVFAQRLRQSVQTYFDEPWALTYANADRLLDMRDEEMALRDEEVTGELPEDLEYEEFNEIREQLAAIIEEQLAVYKTRQVPLDLGLVVREYLSQYPRARHFDVARIVIDQAVRLGVAQADFTGLPAKWQPINDYGAKVQAHVIDKY | 
4 | binds |  | Scc2 residues 151-1493 (S. cerevisiae cohesin loader), recombinant (domain or fragment) SNAGNLSFNDNSSNKKTKTSTGVTMTQANLAEQYLNDLKNILDIVGFDQNSAEIGNIEYWLQLPNKKFVLTTNCLTKLQMTIKNITDNPQLSNSIEITWLLRLLDVMVCNIKFSKSSLKMGLDDSMLRYIALLSTIVLFNIFLLGKNDSNLHRESYIMEPVNFLSDLIESLKILTIEYGSLKIEFDTFQEALELLPKYIRNGPFLDDNVTAKLVYIFSDLLMNNDIEATTNIQFQSFWDNVKRISSDILVSLFGSFDQQRGFIIEELLSHIEKLPTKRIQKKLRKVGNQNIYITDFTFTLMSMLENINCYSFCNQMKDIAPENIDLLKNEYKKQEEFLFNIVEHINDTILERFFKNPSALRYVIDNFVQDLLLLISSPQWPVTEKILSSLLKRLLSVYSPSMQVSANIETICLQLIGNIGSTIFDIKCSTRDHEDNNLIKMINYPETLPHFFKSFEECIAYNETIKCRRSATRFLWNLRLGTILILEEYTKDAKEQIITVDNELKKILEQIKDGGLGPELENREADFSTIKLDYFSILHAFELLNLYDPYLKLILSLLAKDKIKLRSTAIKCLSMLASKDKVILSNPMVKETIHRRLNDSSASVKDAILDLVSINSSYFEFYQQINNNYNDDSIMVRKHVLRINEKMYDETNDIVTKVYVIARILMKIEDEEDNIIDMARLILLNRWILKVHEVLDQPEKLKEISSSVLLVMSRVAIMNEKCSQLFDLFLNFYLLNKEAHSKEAYDKITHVLTILTDFLVQKIVELNSDDTNEKNSIVDKQNFLNLLAKFADSTVSFLTKDHITALYPYMVSDEKSDFHYYILQVFRCTFEKLANFKQKFLYDLETTLLSRLPKMNVREIDEAMPLIWSVATHRHDTARVAKACSSCLSHLHPYINKANNEEAAIVVDGKLQRLIYLSTGFARFCFPKPSNDKIAFLQEGETLYEHITKCLLVLSKDKITHVIRRVAVKNLTKLCGNHPKLFNSRHVLHLLDKEFQSDQLDIKLVILESLYDLFLLEERKSVRNTGVNSTLSSNSILKKKLLKTNRVEFANDGVCSALATRFLDNILQLCLLRDLKNSLVAIRLLKLILKFGYTNPSHSIPTVIALFASTSQYIRHVAYELLEDLFEKYETLVFSSLSRGVTKAIHYSIHTDEKYYYKHDHFLSLLEKLCGTGKKNGPKFFKVLKRIMQSYLDDITDLTSTNSSVQKSIFVLCTNISNITFVSQYDLVSLLKTIDLTTDRLKEVIMDEIGDNVSSLSVSEEKLSGIILIQLSLQDLGTYLLHLYGLRDDVLLLDIVEESELKNKQLPAKKPDISKFSAQLENIEQYSSNGKLLTYFRKHVKDT | 
5 |  | binds | MukE (E. coli KITE protein of MukBEF), untagged, from the co-expressed holocomplex (natural protein) MSSTNIEQVMPVKLAQALANPLFPALDSALRSGRHIGLDELDNHAFLMDFQEYLEEFYARYNVELIRAPEGFFYLRPRSTTLIPRSVLSELDMMVGKILCYLYLSPERLANEGIFTQQELYDELLTLADEAKLLKLVNNRSTGSDVDRQKLQEKVRSSLNRLRRLGMVWFMGHDSSKFRITESVFRFGADVRAGDDPREAQRRLIRDGEAMPIENHLQLNDETEENQPDSGEEE | binding result [3]: binds
6 |  |  | MukE (E. coli) made as His6-SUMO-MukE for the MukEF preparation (natural protein) MSSTNIEQVMPVKLAQALANPLFPALDSALRSGRHIGLDELDNHAFLMDFQEYLEEFYARYNVELIRAPEGFFYLRPRSTTLIPRSVLSELDMMVGKILCYLYLSPERLANEGIFTQQELYDELLTLADEAKLLKLVNNRSTGSDVDRQKLQEKVRSSLNRLRRLGMVWFMGHDSSKFRITESVFRFGADVRAGDDPREAQRRLIRDGEAMPIENHLQLNDETEENQPDSGEEE | binding result [4]: binds

— doi:10.1101/464701 (bioRxiv, 2018)
